These results are taken from patent US20260275344.

This data set has as its system PiggyBac transposase. Put plainly: cell_activity.

ITR-EF1a-GFP-ITR cssDNA came in with an activity (K562 day 21, donor alone ~2.37%) of 39.3 % GFP+ cells and an activity (primary human T cells day 14, donor alone ~0.16%) of 7.54 % GFP+ cells.
